The values that follow come from patent US20240124586A1 (WUXI BIOLOGICS IRELAND, published 2024).

Assay [1] addresses T1, human PD-1 on engineered CHO-S cells (W305-CHO-S.hPro1.C6) (human, UniProt Q15116 25-288).
T1 construct: whole, on cells; also called human PD-1 engineered cells; PD-1+ cells
As to the kind of experiment: FACS on human PD-1 engineered cells. As for the experimental part: Engineered human PD-1 expressing cells W305-CHO-S.hPro1.C6 were seeded at 1×10⁵ cells/well in U-bottom 96-well plates (COSTAR 3799). Antibodies with 3.16-fold titration in 1% BSA DPBS from 200 nM to 0.002 nM were added to the cells. The plates were incubated at 4° C. for 1 hour. After wash, […] 1:125 diluted PE-labeled goat anti-human antibody (Jackson 109-115-098) was added to each well and the plates were incubated at 4° C. for 1 hour. The binding of the antibodies onto the cells was tested by flow cytometry and the mean fluorescence intensity (MFI) was analyzed by FlowJo.

Assay [2] deals with T2, human CTLA-4 on engineered 293F cells (W316-293F.hPro1.FL) (human, UniProt P16410 36-223).
T2 construct: whole, on cells; also called human CTLA-4 engineered cells; CTLA-4+ cells
T2 sequence (P16410 36-223, change not shown): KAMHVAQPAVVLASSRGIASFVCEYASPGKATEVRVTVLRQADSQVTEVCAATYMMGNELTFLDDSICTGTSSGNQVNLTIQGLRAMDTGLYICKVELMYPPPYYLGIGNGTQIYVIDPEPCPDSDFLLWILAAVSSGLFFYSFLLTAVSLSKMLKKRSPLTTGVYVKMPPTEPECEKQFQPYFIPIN
As to the kind of experiment: FACS on human CTLA-4 engineered cells. As for the experimental part:
3.16-fold titrated Abs with 1% BSA DPBS from 200 nM to 0.002 nM were added to the cells. Plates were incubated at 4° C. for 1 hour. After wash, […] 1:150 diluted PE-labeled goat anti-human antibody (Jackson 109-115-098) was added to each well and the plates were incubated at 4° C. for 1 hour. The binding of the antibodies onto the cells was tested by flow cytometry and the mean fluorescence intensity (MFI) was analyzed by FlowJo.

Assay [3] has as its target T3, cynomolgus PD-1 on engineered 293F cells (W305-293F.cynoPro1.FL.pool) (cynomolgus).
T3 construct: whole, on cells; also called cynomolgus PD-1 engineered cells
In words: FACS binding to cynomolgus PD-1 engineered cells. As for the experimental part:
4.0-fold titrated Abs with 1% BSA DPBS from 40 μg/ml to 0.0001526 μg/ml were added to the cells. Plates were incubated at 4° C. for 1 hour. After wash, […] 1:150 diluted PE-labeled goat anti-human antibody (Jackson 109-115-098) was added to each well and the plates were incubated at 4° C. for 1 hour. The binding of the antibodies onto the cells was tested by flow cytometry and the mean fluorescence intensity (MFI) was analyzed by FlowJo.

For assay [4], the target named is T1, human PD-1 on engineered CHO-S cells …. In words: FACS competition: blocks human PD-L1 protein (W315-hPro1.ECD.mFc) binding to human PD-1 engineered cells. As for the experimental part:
In order to test whether the bispecific antibodies could block hPD-L1 binding to hPD-1 protein, a competitive FACS was conducted. […] Plates were incubated at 4° C. for 1 hour. After wash, the binding of W315-hPro1.ECD.mFc to cell expressive human PD-1 was detected by FITC-labeled goat anti-mouse antibody (abcam 98716 1:125). The competition binding of antibodies to the cells was tested by flow cytometry and the mean fluorescence intensity (MFI) was analyzed by FlowJo.

T1 sequence (Q15116 25-288, change not shown): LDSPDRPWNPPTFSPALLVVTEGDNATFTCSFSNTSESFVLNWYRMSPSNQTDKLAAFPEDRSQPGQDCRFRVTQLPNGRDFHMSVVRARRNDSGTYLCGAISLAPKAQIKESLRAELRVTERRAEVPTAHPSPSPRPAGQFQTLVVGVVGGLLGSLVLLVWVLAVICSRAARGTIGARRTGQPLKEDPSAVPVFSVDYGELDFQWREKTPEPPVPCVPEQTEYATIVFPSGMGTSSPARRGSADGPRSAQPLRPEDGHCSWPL

B1: U6T5.G19R.IgG4, bispecific anti-PD-1 x CTLA-4 (bispecific antibody)
heavy: EVQLLESGGGLVQPGGSLRLSCAASGFTFSSHAMSWVRQAPGKGLEWVSTITGGGGSIYYADSVKGRFTISRDNSKNTLYLQMNSLRAEDTAVYYCAKNRAGEGYFDYWGQGTLVTVLEDLKNVFPPEVAVFEPSEAEISHTQKATLVCLATGFYPDHVELSWWVNGKEVHSGVCTDPQPLKEQPALQDSRYALSSRLRVSATFWQNPRNHFRCQVQFYGLSENDEWTQDRAKPVTQIVSAEAWGRYGPPCPPCPAPEFLGGPSVFLFPPKPKDTLMISRTPEVTCVVVDVSQEDPEVQFNWYVDGVEVHNAKTKPREEQFNSTYRVVSVLTVLHQDWLNGKEYKCKVSNKGLPSSIEKTISKAKGQPREPQVYTLPPSQEEMTKNQVSLTCLVKGFYPSDIAVEWESNGQPENNYKTTPPVLDSDGSFFLYSRLTVDKSRWQEGNVFSCSVMHEALHNHYTQKSLSLSLGGGGGSGGGGSGGGGSGGGGSQVQLVQSGAEVKKPGSSVKVSCKASGYTFTNYFMNWVRQAPGQGLEWMGRVDPEQGRADYAEKFKKRVTITADKSTSTAYMELSSLRSEDTAVYYCARRAMDNYGFAYWGQGTLVTVSSASTKGPSVFPLAPCSRSTSESTAALGCLVKDYFPEPVTVSWNSGALTSGVHTFPAVLQSSGLYSLSSVVTVPSSSLGTKTYTCNVDHKPSNTKVDKRV
light 1: SYELTQPLSVSVALGQTARITCGGDNIGNKDVHWYQQKPGQAPVLVIYRDSNRPSGIPEGFSGSNSGNTATLTISRAQAGDEADYYCQVWDSIWVFGGGTKLTVLPDIQNPDPAVYQLRDSKSSDKSVCLFTDFDSQTQVSQSKDSDVYITDKCVLDMRSMDFKSNSAVAWSQKSDFACANAFQNSIIPEDTFFPSPESS
light 2: EIVLTQSPDFQSVTPKEKVTITCSANSALSYMYWYQQKPDQSPKLWVHGTSNLASGVPSRFSGSGSGTDFTLTINSLEAEDAATYYCHHWSNTQWTFGGGTKVEIKRTVAAPSVFIFPPSDEQLKSGTASVVCLLNNFYPREAKVQWKVDNALQSGNSQESVTEQDSKDSTYSLSSTLTLSKADYEKHKVYACEVTHQGLSSPVTKSFNRGEC
notes: also called U6T5 in G19R format
The EC50 is the concentration needed to bring the measured effect to its halfway point. A low value points to an effect from little substance. Take B1: the EC50 in assay [1] is 1.26 nM; in assay [2] it was 8.23 nM.

B2: U6T5.G19.IgG4, bispecific anti-PD-1 x CTLA-4 (bispecific antibody)
heavy: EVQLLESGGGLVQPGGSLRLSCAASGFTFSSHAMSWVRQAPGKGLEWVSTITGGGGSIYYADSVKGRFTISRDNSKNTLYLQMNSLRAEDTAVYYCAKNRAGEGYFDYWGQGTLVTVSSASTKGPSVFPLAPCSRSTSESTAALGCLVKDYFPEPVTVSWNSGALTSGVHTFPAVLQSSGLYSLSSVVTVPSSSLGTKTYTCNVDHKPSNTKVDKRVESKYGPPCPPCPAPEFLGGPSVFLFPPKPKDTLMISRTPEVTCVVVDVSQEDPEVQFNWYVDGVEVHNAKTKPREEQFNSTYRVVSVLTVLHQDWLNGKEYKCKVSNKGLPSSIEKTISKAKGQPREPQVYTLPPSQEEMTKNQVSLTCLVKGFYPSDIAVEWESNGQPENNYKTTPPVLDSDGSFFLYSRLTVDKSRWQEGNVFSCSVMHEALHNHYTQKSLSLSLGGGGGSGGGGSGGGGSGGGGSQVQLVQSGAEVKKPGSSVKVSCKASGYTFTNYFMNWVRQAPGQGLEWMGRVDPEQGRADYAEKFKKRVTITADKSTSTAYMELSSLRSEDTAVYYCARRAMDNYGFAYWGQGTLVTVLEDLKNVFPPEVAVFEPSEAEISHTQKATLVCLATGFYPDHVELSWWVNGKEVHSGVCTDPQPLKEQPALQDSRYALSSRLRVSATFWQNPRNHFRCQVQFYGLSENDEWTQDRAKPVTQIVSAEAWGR
light 1: SYELTQPLSVSVALGQTARITCGGDNIGNKDVHWYQQKPGQAPVLVIYRDSNRPSGIPEGFSGSNSGNTATLTISRAQAGDEADYYCQVWDSIWVFGGGTKLTVLGQPKAAPSVTLFPPSSEELQANKATLVCLISDFYPGAVTVAWKADSSPVKAGVETTTPSKQSNNKYAASSYLSLTPEQWKSHKSYSCQVTHEGSTVEKTVAPTECS
light 2: EIVLTQSPDFQSVTPKEKVTITCSANSALSYMYWYQQKPDQSPKLWVHGTSNLASGVPSRFSGSGSGTDFTLTINSLEAEDAATYYCHHWSNTQWTFGGGTKVEIKPDIQNPDPAVYQLRDSKSSDKSVCLFTDFDSQTQVSQSKDSDVYITDKCVLDMRSMDFKSNSAVAWSQKSDFACANAFQNSIIPEDTFFPSPESS
notes: T5 = anti-CTLA-4 antibody W3162_1.154.8-z35; also called U6T5 in G19 format
In the case of B2, the figures for the half-maximal effective concentration (EC50) in assay [1] and in assay [2] were 0.97 nM and 8.93 nM, respectively.

B3: WBP3055_1.153.7.hAb (antibody, V domains shown)
VH: EVQLLESGGGLVQPGGSLRLSCAASGFTFSSHAMSWVRQAPGKGLEWVSTITGGGGSIYYADSVKGRFTISRDNSKNTLYLQMNSLRAEDTAVYYCAKNRAGEGYFDYWGQGTLVTVSS
VL: SYELTQPLSVSVALGQTARITCGGDNIGNKDVHWYQQKPGQAPVLVIYRDSNRPSGIPEGFSGSNSGNTATLTISRAQAGDEADYYCQVWDSIWVFGGGTKLTVL
notes: anti-PD-1 antibody, parent of the U6 arm; also called W3055_1.153.7 (named U6); WBP3055-1.153.7.uIgG4k
What is called IC50 is the concentration that gives 50% inhibition. For B3, in assay [3], the response was half-maximal at 3.48 nM (EC50) and the “Top(MFI)” value is 56700 MFI. In assay [4], this molecule came in with an IC50 of 0.888 nM and an Inhibition % of 98.6%.
